Experiments:
[1] = target: RAGE (full-length, recombinant) (UniProt Q62151 1-402); test: EMSA
[2] = target: RAGE (full-length, recombinant);MRE11 (Mus musculus?;, UniProt Q62151;P49959 1-402;1-708, |); test: EMSA
RAGE (full-length, recombinant);MRE11, sequence (Q62151 whole entry, chain 1 of 2): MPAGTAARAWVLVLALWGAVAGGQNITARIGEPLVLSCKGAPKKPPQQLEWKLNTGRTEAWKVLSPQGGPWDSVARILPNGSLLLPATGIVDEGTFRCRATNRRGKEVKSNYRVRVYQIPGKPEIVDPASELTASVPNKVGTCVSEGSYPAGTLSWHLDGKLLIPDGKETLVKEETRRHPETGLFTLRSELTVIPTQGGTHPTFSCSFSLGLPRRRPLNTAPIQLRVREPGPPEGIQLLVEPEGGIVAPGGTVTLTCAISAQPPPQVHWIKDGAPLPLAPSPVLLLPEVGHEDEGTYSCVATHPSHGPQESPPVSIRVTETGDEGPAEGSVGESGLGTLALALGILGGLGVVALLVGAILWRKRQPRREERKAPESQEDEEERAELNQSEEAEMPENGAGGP
RAGE (full-length, recombinant);MRE11, sequence (P49959 whole entry, chain 2 of 2): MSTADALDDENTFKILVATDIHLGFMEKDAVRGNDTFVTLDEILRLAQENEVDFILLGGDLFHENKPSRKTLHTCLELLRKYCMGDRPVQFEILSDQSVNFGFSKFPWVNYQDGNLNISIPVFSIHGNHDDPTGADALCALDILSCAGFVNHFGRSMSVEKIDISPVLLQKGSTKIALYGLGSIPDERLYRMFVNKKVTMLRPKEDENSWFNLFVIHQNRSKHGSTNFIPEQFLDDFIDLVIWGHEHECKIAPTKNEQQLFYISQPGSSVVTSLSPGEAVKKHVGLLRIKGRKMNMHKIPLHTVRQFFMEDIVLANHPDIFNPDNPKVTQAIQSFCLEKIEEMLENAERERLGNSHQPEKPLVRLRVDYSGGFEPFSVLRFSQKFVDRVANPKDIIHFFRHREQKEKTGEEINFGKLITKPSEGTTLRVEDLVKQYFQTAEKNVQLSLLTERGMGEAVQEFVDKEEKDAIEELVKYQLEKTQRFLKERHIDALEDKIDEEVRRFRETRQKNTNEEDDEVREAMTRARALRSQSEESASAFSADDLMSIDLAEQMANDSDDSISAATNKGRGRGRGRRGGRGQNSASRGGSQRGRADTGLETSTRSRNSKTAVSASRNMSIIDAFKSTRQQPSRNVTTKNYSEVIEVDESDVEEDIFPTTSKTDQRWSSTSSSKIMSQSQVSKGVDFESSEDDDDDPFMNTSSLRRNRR

RAGE (full-length, recombinant), sequence (Q62151 whole entry): as the sequence (Q62151 whole entry, chain 1 of 2) above

B1: RAGE EM-F/EM-R 64mer dsDNA probe (dsDNA)
DNA 1: GGACTCCAGGTCCAGGACCGCCGTTTTTCGCGCGCACGGCGCGGGAGGTCCAGCTGGTCCACCTCC
DNA 2: GGAGGTGGACCAGCTGGACCTCCCGCGCCGTGCGCGCGAAAAACGGCGGTCCTGGACCTGGAGTCC
B1: binds [1]; binds [2].

Reference: article PMC5737477
